From patent US10800847
Blank lines part the entries; values can stand above or below the substance they belong to.

Key:
HLA-B*1801 (B18) (human) = assay: Luminex iBeads (#6), IVIg diluted 1:8
HLA-B*1301 (B13) (human) = assay: Luminex iBeads (#6), IVIg diluted 1:8
HLA-B*1501 (B62) (human) = assay: Luminex iBeads (#6), IVIg diluted 1:8
HLA-B*1516 (B63) (human) = assay: Luminex iBeads (#6), IVIg diluted 1:8
HLA-B*1511 (B75) (human) = assay: Luminex iBeads (#6), IVIg diluted 1:8
[1] = target: Serum albumin on negative control beads (HSA/BSA) (human or bovine); assay: Luminex iBeads (#6), IVIg diluted 1:8
HLA-B*0702 (B7) (human) = assay: Luminex iBeads (#6), IVIg diluted 1:8
HLA-B*1510 (B71) (human) = assay: Luminex iBeads (#6), IVIg diluted 1:8
HLA-B*1402 (B65) (human) = assay: Luminex iBeads (#6), IVIg diluted 1:8
HLA-B*1513 (B77) (human) = assay: Luminex iBeads (#6), IVIg diluted 1:8
HLA-B*1512 (B76) (human) = assay: Luminex iBeads (#6), IVIg diluted 1:8
HLA-B*1503 (B72) (human) = assay: Luminex iBeads (#6), IVIg diluted 1:8
HLA-B*1502 (B75) (human) = assay: Luminex iBeads (#6), IVIg diluted 1:8
HLA-B*0801 (B8) (human) = assay: Luminex iBeads (#6), IVIg diluted 1:8
HLA-B*1302 (B13) (human) = assay: Luminex iBeads (#6), IVIg diluted 1:8
[2] = target: HLA-Cw*0602 (Cw6) (human); assay: Luminex, iBeads (#6), 1:8
[3] = target: HLA-Cw*0702 (Cw7) (human); assay: Luminex, iBeads (#6), 1:8
[4] = target: HLA-Cw*1802 (Cw18) (human); assay: Luminex, iBeads (#6), 1:8
[5] = target: HLA-A*2902 (A29) single antigen on beads (human); assay: Luminex iBeads (#6), IVIg 1:8
[6] = target: HLA-A*3001 (A30) single antigen on beads (human); assay: Luminex iBeads (#6), IVIg 1:8
[7] = target: HLA-A*3002 (A30) single antigen on beads (human); assay: Luminex iBeads (#6), IVIg 1:8
[8] = target: HLA-A*3101 (A31) single antigen on beads (human); assay: Luminex iBeads (#6), IVIg 1:8
[9] = target: HLA-A*3303 (A33) single antigen on beads (human); assay: Luminex iBeads (#6), IVIg 1:8
[10] = target: HLA-A*4301 (A43) single antigen on beads (human); assay: Luminex iBeads (#6), IVIg 1:8
[11] = target: HLA-A*3401 (A34) single antigen on beads (human); assay: Luminex iBeads (#6), IVIg 1:8
[12] = target: HLA-A*3601 (A36) single antigen on beads (human); assay: Luminex iBeads (#6), IVIg 1:8
[13] = target: HLA-A*6601 (A66) single antigen on beads (human); assay: Luminex iBeads (#6), IVIg 1:8
[14] = target: HLA-A*3201 (A32) single antigen on beads (human); assay: Luminex iBeads (#6), IVIg 1:8
[15] = target: HLA-A*3402 (A34) single antigen on beads (human); assay: Luminex iBeads (#6), IVIg 1:8
[16] = target: HLA-A*6602 (A66) single antigen on beads (human); assay: Luminex iBeads (#6), IVIg 1:8
[17] = target: HLA-Cw*0602 (Cw6) (human); assay: Luminex, regular beads (#7), 1:8
[18] = target: HLA-Cw*1701 (Cw17) (human); assay: Luminex, regular beads (#7), 1:8
[19] = target: HLA-Cw*1402 (Cw14) (human); assay: Luminex, regular beads (#7), 1:8
[20] = target: HLA-Cw*0302 (Cw10) (human); assay: Luminex, regular beads (#7), 1:8
[21] = target: HLA-Cw*0501 (Cw5) (human); assay: Luminex, regular beads (#7), 1:8
[22] = target: HLA-Cw*0702 (Cw7) (human); assay: Luminex, regular beads (#7), 1:8
[23] = target: HLA-Cw*1203 (Cw12) (human); assay: Luminex, regular beads (#7), 1:8
[24] = target: HLA-Cw*0304 (Cw10) (human); assay: Luminex, regular beads (#7), 1:8
[25] = target: HLA-Cw*0102 (Cw1) (human); assay: Luminex, regular beads (#7), 1:8
[26] = target: HLA-Cw*0202 (Cw2) (human); assay: Luminex, regular beads (#7), 1:8
[27] = target: HLA-Cw*0401 (Cw4) (human); assay: Luminex, regular beads (#7), 1:8
[28] = target: Albumin (negative control beads) (human or bovine); assay: Luminex, regular beads (#7), 1:8
[29] = target: HLA-Cw*1502 (Cw15) (human); assay: Luminex, regular beads (#7), 1:8
[30] = target: HLA-Cw*1802 (Cw18) (human); assay: Luminex, regular beads (#7), 1:8
[31] = target: HLA-Cw*1601 (Cw16) (human); assay: Luminex, regular beads (#7), 1:8
HLA-B*8201 (B82) (human) = assay: Luminex, regular beads (#7), 1:8
[32] = target: HLA-Cw*0303 (Cw9) (human); assay: Luminex, regular beads (#7), 1:8
[33] = target: HLA-A*3301 (A33) single antigen on beads (human); assay: Luminex iBeads (#6), IVIg 1:8
[34] = target: HLA-A*6801 (A68) single antigen on beads (human); assay: Luminex iBeads (#6), IVIg 1:8

- MFI (HLA-B*1801 (B18) (human)): 0 MFI
- MFI (HLA-B*1301 (B13) (human)): 1030 MFI
- MFI (HLA-B*1501 (B62) (human)): 53 MFI
- MFI (HLA-B*1516 (B63) (human)): 1210 MFI
- MFI (HLA-B*1511 (B75) (human)): 1860 MFI
- MFI [1]: 7800 MFI
- MFI (HLA-B*0702 (B7) (human)): 0 MFI
- MFI (HLA-B*1510 (B71) (human)): 347 MFI
- MFI (HLA-B*1402 (B65) (human)): 0 MFI
- MFI (HLA-B*1513 (B77) (human)): 841 MFI
- MFI (HLA-B*1512 (B76) (human)): 1420 MFI
- MFI (HLA-B*1503 (B72) (human)): 0 MFI
- MFI (HLA-B*1502 (B75) (human)): 91 MFI
- MFI (HLA-B*0801 (B8) (human)): 0 MFI
- MFI (HLA-B*1302 (B13) (human)): 0 MFI
- MFI [2]: 2110 MFI
- MFI [3]: 2400 MFI
- MFI [4]: 1480 MFI
- MFI [5]: 2890 MFI
- MFI [6]: 1340 MFI
- MFI [7]: 1410 MFI
- MFI [8]: 0 MFI
- MFI [9]: 517 MFI
- MFI [10]: 2720 MFI
- MFI [11]: 3420 MFI
- MFI [12]: 1550 MFI
- MFI [13]: 2330 MFI
- MFI [14]: 915 MFI
- MFI [15]: 0 MFI
- MFI [16]: 1860 MFI
- MFI [17]: 10600 MFI
- MFI [18]: 5640 MFI
- MFI [19]: 6160 MFI
- MFI [20]: 4130 MFI
- MFI [21]: 5980 MFI
- MFI [22]: 10500 MFI
- MFI [23]: 5610 MFI
- MFI [24]: 4430 MFI
- MFI [25]: 4310 MFI
- MFI [26]: 6810 MFI
- MFI [27]: 6480 MFI
- MFI [28]: 10300 MFI
- MFI [29]: 3690 MFI
- MFI [30]: 7160 MFI
- MFI [31]: 6850 MFI
- MFI (HLA-B*8201 (B82) (human)): 4780 MFI
- MFI [32]: 3020 MFI
Substance: IVIg Gamunex-C Lot NKLK1 (antibody)

- MFI (HLA-B*1801 (B18) (human)): 0 MFI
- MFI (HLA-B*1301 (B13) (human)): 52 MFI
- MFI (HLA-B*1501 (B62) (human)): 0 MFI
- MFI (HLA-B*1516 (B63) (human)): 880 MFI
- MFI (HLA-B*1511 (B75) (human)): 1090 MFI
- MFI (HLA-B*0702 (B7) (human)): 0 MFI
- MFI (HLA-B*1510 (B71) (human)): 0 MFI
- MFI (HLA-B*1402 (B65) (human)): 0 MFI
- MFI (HLA-B*1512 (B76) (human)): 1380 MFI
- MFI (HLA-B*1503 (B72) (human)): 0 MFI
- MFI (HLA-B*1502 (B75) (human)): 0 MFI
- MFI (HLA-B*0801 (B8) (human)): 114 MFI
- MFI (HLA-B*1302 (B13) (human)): 0 MFI
- MFI [2]: 586 MFI
- MFI [3]: 1620 MFI
- MFI [4]: 873 MFI
- MFI [5]: 2270 MFI
- MFI [6]: 510 MFI
- MFI [7]: 369 MFI
- MFI [8]: 0 MFI
- MFI [33]: 1360 MFI
- MFI [9]: 152 MFI
- MFI [10]: 1690 MFI
- MFI [11]: 2060 MFI
- MFI [12]: 572 MFI
- MFI [13]: 1020 MFI
- MFI [14]: 518 MFI
- MFI [15]: 0 MFI
- MFI [34]: 0 MFI
- MFI [16]: 684 MFI
- MFI [18]: 8980 MFI
- MFI [19]: 8430 MFI
- MFI [20]: 5610 MFI
- MFI [21]: 8770 MFI
- MFI [22]: 15300 MFI
- MFI [23]: 8660 MFI
- MFI [24]: 5550 MFI
- MFI [25]: 7720 MFI
- MFI [26]: 9380 MFI
- MFI [27]: 9880 MFI
- MFI [28]: 2340 MFI
- MFI [29]: 4820 MFI
- MFI [30]: 10600 MFI
- MFI [31]: 9260 MFI
- MFI (HLA-B*8201 (B82) (human)): 5030 MFI
- MFI [32]: 3350 MFI
Substance: IVIg Octagam (Octapharma, Lachen, Switzerland) (antibody)
